Positions count from the first letter of the chain named.
B1: anti-CI-M6PR VHH7 (VHH)
VHH: QVQLQESGGGLVQPGGSLRLSCAASGIIFSDNRMDWYRQAPGKQREWVATLASYGWKTYADSVKGRFTISRDNTKNTVYLRMNSLKPEDTAVYYCKASSPVLNDIWGQGTQVTVSS
notes: His6-tagged (Pichia pastoris)
B2: anti-CI-M6PR VHH1 (VHH)
VHH: QVQLQESGGGLVQPGGSLRLSCVASGFTFDRYWMNWLRQIPGKEIEWVSTINTGGTGTYYDDSVKGRFSISRDDAKNTLYLTMNSLKTEDTAVYYCARGATYYRGNSAIRGQGTQVTVSS
notes: His6-tagged; made in Pichia pastoris, later also in E. coli WK6
B3: anti-CI-M6PR VHH5 (VHH)
VHH: QVQLQESGGGLVQAGGSLKLSCAAAGRTFSRLAMGWFRQAPGKEREFVAAISENGDSIHYSDSVKGRFAVSRDNAKNTVYLQMNSLKPEDTAIYYCAADRAAYYCSGSGCYPSRAPAAASYDYWGQGTQVTVSS
notes: as for B2
B4: anti-CI-M6PR VHH8 (VHH)
VHH: QVQLQESGGGLVQAGGSLRLSCEASGRTFNTYNWGWFRQAPGKEREFVAAIRWSSSKTSYADSVKGRFTISRDNAKNTIYLQMNSLKPEDTAVYYCAASIVDFTTNPSHFGSWGQGTQVTVSS
notes: His6-tagged (Pichia pastoris)
B5: anti-CI-M6PR VHH 1H11 (VHH)
VHH: QVQLQESGGGLVQPGGSLRLSCAASGIIFSDNRMDWYRQAPGKQREWVATLASYGWKTYADSVKDRFTISRDNAKNTVNLYMNSLQPEDTAVYYCNSGQYWGQGTQVTVSS
notes: made in E. coli WK6, His-tag purified

Columns and labels:
[1] = molecular target: T1, recombinant human domain 1-3His6 of the cation-independent mannose-6-phosphate receptor (human, UniProt P11717 41-467); experiment: ELISA on coated human CI-M6PRD1-D3, non-linear fit of the curves of FIG 36A
T1 construct: Biotinylated (NHS-PEG4-biotin) for BLI; Glycosylated; also called hDom1-3His6; hCI-M6PRD1-D3
Description: FIGS. 36A-C. […] (FIG. 36A) ELISA assay in which each construct was serially diluted and incubated on human CI-M6PR_D1-D3 and the detected absorbance (Abs) at 450 nm was set out in function of concentration. […] Graphs created in Graphpad Prism 9.0.0.

[2] = molecular target: T1, recombinant human domain 1-3His6 of the …; experiment: BLI exp 2, dissoc pH 6.5
[3] = molecular target: T1, recombinant human domain 1-3His6 of the …; experiment: BLI exp 2, dissoc pH 5.5
Description: For each of the 11 anti-CI-M6PR VHHs, a biolayer interferometry (BLI) experiment was performed in which the hDom₁₋₃His₆ was biotinylated and coupled to streptavidin biosensor tips. Afterwards, the tips were incubated with serially diluted VHHs during the association phase and dissociation was performed at pH 7.4. Similarly, dissociation was performed at pH 7.0, pH 6.0 and pH 5.0 as well after regeneration of the biosensor tips. […] The anti-CI-M6PR antibody (clone 2G11) and GBP were used as positive and negative controls, respectively.
Analysis of the binding kinetics was performed using an Octet Red96 (FortéBio) device with Streptavidin SA Biosensor tips (VWR, 733-2145). To this end, 1 mL of hCI-M6PR_D1-D3 (0.5 mg/mL in 50 mM MES, 150 mM NaCl, pH 6.5) was incubated at room temperature for 30 minutes with a two-fold molar excesses of EZ-Link™ NHS-PEG₄-Biotin (Thermo Fischer, A39259) and NaHCO₃ (100 mM, pH 8.3). Biotinylated hCIMPR_D1-D3 was purified using a Zeba spin desalting column (Thermo Fischer, 89890) and protein concentration was calculated by measuring the absorbance at 280 nm (extinction coefficient 50320 M¹ cm⁻¹). Two-fold biotin-labelled antigen was loaded on the tips (2.5 μg/mL) and subsequently dipped into a particular anti-CI-M6PR VHH-containing solution (ranging from 0-100 nM). Serial VHH dilutions were made in kinetics buffer (0.2 M Na₂HPO₄, 0.1 M Na⁺ citrate, 0.01% BSA, 0.002% Tween20, pH 7.4). After association (100 sec), dissociation was conducted (500 sec) for each anti-CI-M6PR VHH in the kinetics buffer, followed by biosensor regeneration in glycine (10 mM, pH 3) and neutralisation. The same cycle was repeated with dissociation performed in kinetics buffer of pH 7.0, 6.5, 6.0, 5.5, and 5.0.
A reference well and reference sensors were subtracted from ligand sensors afterwards and Savitsky-Golay filtering was applied on the data. Fitting of the data was performed using a 1:1 model, grouped per dissociation pH.

[4] = molecular target: human cation-independent mannose-6-phosphate receptor, native, on cells (human, UniProt P11717 41-2491); experiment: cell-based or functional assay
[5] = molecular target: T2, D87L; experiment: ELISA on coated antigen (100 ng), anti-VHH-HRP, A450
T2 construct: also called human CI-M6PR Dom1-3His6 D87L
T2 chain: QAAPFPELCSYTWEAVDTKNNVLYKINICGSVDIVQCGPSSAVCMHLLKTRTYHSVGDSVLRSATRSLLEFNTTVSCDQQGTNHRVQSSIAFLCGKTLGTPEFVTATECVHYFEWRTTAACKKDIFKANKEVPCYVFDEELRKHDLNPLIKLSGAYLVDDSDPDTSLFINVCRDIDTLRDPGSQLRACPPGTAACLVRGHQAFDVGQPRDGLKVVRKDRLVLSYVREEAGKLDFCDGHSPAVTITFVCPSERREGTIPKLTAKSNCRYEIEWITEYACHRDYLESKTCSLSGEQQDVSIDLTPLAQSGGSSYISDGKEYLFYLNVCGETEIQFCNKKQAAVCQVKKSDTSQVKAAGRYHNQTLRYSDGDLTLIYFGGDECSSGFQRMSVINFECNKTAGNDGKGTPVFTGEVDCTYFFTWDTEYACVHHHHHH
Description: (§1) To determine the effect of site-directed mutations, an ELISA was performed. To this end, 100 ng of each successfully purified mutant was coated per well on Nunc Maxisorp plates in 50 mM MES, 150 mM NaCl, pH 6.5 buffer overnight at 4° C. […] Coating-only controls were included for background correction. […] Reactions were stopped after five minutes using a 2N H₂SO₄ solution and plates were read at 450 nm, with a 655 nm background correction. Data were analyzed using the GraphPad Prism 9 software.

[6] = molecular target: T3, F457E; experiment: as above
T3 construct: also called human CI-M6PR Dom1-3His6 F457E
T3 chain: T2 chain with L47D, F417E
Description: as §1

EC50 [1] [nM]	koff [2] [s⁻¹]	kon [2] [M⁻¹ s⁻¹]	koff [3] [s⁻¹]	kon [3] [M⁻¹ s⁻¹]	internalisation rate (live-cell imaging of AF488-VHH on MCF7 cells) [4] [summed AF-voxels/minute]	EC50 (read off the curve) [5] [nM]	EC50 (read off the curve) [6] [nM]	Binder
0.45	0.02	430000	0.027	35000	1.26e+06			B1
19	0.011	1.1e+06	0.04	47000	1.38e+06			B2
65					687000	~2		B3
0.16	0.0007	1.2e+06	0.0025	1.9e+08	673000	~4	~10	B4
							~0.4	B5

Source: patent US20250263490A1 (VIB VZW, published 2025)
